PMC10810270, “Molecular mechanism of specific DNA sequence recognition by NRF1” (Nucleic Acids Research, 2023)

How the values were obtained:
NRF1 DD-DBD [1] = target: T1, NRF1 DD-DBD (human, UniProt Q16656 54-284); assay: ITC; ITC: 20 mM Hepes pH 7.0, 150 mM NaCl, 25 C; protein 20-30 uM, dsDNA 500-600 uM; details: protein: recombinant, tags: N-terminal His6 removed by TEV (pET28-MHL), chain copies: 2, blunt
T1 sequence: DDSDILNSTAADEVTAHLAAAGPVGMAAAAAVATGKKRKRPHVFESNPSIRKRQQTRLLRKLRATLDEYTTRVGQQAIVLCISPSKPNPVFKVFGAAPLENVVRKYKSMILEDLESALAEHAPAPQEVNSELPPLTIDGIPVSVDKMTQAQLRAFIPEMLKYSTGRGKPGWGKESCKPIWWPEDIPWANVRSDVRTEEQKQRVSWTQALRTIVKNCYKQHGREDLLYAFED

[2] = target: the molecule itself; assay: SEC-MALS; HPLC-MALS, WTC-015S5 column, 50 mM PBS and 150 mM NaCl, 0.5 mL/min; oligomeric state of NRF1 fragments without DNA
NRF1 DD-DBD [3] = target: T1, NRF1 DD-DBD; assay: ITC; mean of listed repeats 0.34 and 0.25; ITC: 20 mM Hepes pH 7.0, 150 mM NaCl, 25 C; protein 20-30 uM, dsDNA 500-600 uM; details: protein: recombinant; tags: N-terminal His6 removed by TEV (pET28-MHL); chain copies: 2; blunt; self-complementary
NRF1 DBD [4] = target: T2, NRF1 DBD (human, UniProt Q16656 177-284); assay: ITC; ITC: 20 mM Hepes pH 7.0, 150 mM NaCl, 25 C; protein 20-30 uM, dsDNA 500-600 uM; details: protein: recombinant; tags: N-terminal His6 removed by TEV (pET28-MHL); chain copies: 2; blunt; self-complementary
T2 sequence: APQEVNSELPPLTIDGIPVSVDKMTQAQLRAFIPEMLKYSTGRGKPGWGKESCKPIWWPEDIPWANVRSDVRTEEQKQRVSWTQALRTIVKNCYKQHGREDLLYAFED

NRF1 DD = target: T3, NRF1 DD (human, UniProt Q16656 54-177); assay: ITC; repeats 1.86, 1.78, 1.96; ITC: 20 mM Hepes pH 7.0, 150 mM NaCl, 25 C; protein 20-30 uM, dsDNA 500-600 uM; details: protein: recombinant; tags: N-terminal His6 removed by TEV (pET28-MHL); chain copies: 2; blunt; self-complementary
T3 sequence: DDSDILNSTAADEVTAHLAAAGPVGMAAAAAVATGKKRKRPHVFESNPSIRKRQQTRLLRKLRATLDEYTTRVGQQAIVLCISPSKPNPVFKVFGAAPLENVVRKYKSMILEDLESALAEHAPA

NRF1 N242A = target: T4, NRF1 N242A (human, UniProt Q16656 54-284, N242A); assay: ITC; mean of repeats 1.40, 1.89, 1.89; ITC: 20 mM Hepes pH 7.0, 150 mM NaCl, 25 C; protein 20-30 uM, dsDNA 500-600 uM; details: protein: recombinant; tags: N-terminal His6 removed by TEV; chain copies: 2; blunt; self-complementary
T4 sequence: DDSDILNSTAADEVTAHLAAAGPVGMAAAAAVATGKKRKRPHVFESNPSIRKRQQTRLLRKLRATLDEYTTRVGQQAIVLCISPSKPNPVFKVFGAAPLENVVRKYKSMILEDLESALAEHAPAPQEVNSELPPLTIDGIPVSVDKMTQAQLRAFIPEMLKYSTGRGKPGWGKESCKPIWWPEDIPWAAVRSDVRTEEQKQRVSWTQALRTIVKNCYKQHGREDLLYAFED

NRF1 T109D = target: T5, NRF1 T109D (human, UniProt Q16656 54-284, T109D); assay: ITC; mean of repeats 1.62, 1.87, 1.30; ITC: 20 mM Hepes pH 7.0, 150 mM NaCl, 25 C; protein 20-30 uM, dsDNA 500-600 uM; details: protein: recombinant; tags: N-terminal His6 removed by TEV; chain copies: 2; blunt; self-complementary
T5 sequence: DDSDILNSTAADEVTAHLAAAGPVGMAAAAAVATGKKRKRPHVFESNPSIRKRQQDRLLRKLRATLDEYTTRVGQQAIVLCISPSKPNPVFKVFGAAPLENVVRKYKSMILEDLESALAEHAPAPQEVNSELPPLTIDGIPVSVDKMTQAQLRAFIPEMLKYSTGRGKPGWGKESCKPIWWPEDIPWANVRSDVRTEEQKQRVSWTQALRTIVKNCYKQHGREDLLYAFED

NRF1 T109A = target: T6, NRF1 T109A (human, UniProt Q16656 54-284, T109A); assay: ITC; mean of repeats 2.80, 2.36, 1.72; ITC: 20 mM Hepes pH 7.0, 150 mM NaCl, 25 C; protein 20-30 uM, dsDNA 500-600 uM; details: protein: recombinant; tags: N-terminal His6 removed by TEV; chain copies: 2; blunt; self-complementary
T6 sequence: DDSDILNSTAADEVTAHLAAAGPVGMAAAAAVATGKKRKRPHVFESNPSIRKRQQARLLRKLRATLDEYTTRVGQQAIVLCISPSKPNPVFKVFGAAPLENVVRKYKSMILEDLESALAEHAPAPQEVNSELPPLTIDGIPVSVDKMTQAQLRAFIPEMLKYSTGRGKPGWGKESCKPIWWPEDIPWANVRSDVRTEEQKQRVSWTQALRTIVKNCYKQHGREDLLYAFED

NRF1 R206A = target: T7, NRF1 R206A (human, UniProt Q16656 54-284, R206A); assay: ITC; mean of repeats 5.60, 5.60, 4.40; ITC: 20 mM Hepes pH 7.0, 150 mM NaCl, 25 C; protein 20-30 uM, dsDNA 500-600 uM; details: protein: recombinant; tags: N-terminal His6 removed by TEV; chain copies: 2; blunt; self-complementary
T7 sequence: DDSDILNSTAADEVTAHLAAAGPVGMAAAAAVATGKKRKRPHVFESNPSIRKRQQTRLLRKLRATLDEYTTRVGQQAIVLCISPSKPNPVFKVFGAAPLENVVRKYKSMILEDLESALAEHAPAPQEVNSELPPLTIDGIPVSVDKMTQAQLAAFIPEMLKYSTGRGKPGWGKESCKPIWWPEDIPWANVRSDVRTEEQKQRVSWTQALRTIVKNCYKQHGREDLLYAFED

NRF1 R244A = target: T8, NRF1 R244A (human, UniProt Q16656 54-284, R244A); assay: ITC; mean of repeats 6.45, 8.62, 4.92; ITC: 20 mM Hepes pH 7.0, 150 mM NaCl, 25 C; protein 20-30 uM, dsDNA 500-600 uM; details: protein: recombinant; tags: N-terminal His6 removed by TEV; chain copies: 2; blunt; self-complementary
T8 sequence: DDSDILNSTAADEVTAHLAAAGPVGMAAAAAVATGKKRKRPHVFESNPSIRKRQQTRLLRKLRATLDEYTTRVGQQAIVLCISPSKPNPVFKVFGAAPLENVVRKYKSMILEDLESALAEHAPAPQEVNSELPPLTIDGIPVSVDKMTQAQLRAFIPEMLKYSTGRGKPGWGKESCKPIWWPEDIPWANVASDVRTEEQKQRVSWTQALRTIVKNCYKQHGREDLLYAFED

NRF1 DBD [5] = target: T2, NRF1 DBD; assay: crystal structure; ITC: 20 mM Hepes pH 7.0, 150 mM NaCl, 25 C; protein 20-30 uM, dsDNA 500-600 uM; details: protein: recombinant; tags: N-terminal His6 removed by TEV (pET28-MHL); chain copies: 2; blunt; self-complementary

B1: CG central (dsDNA)
DNA 1: ATGCGCCGGCGCAT
DNA 2: ATGCGCCGGCGCAT
- Kd (NRF1 DD-DBD [1]; self-complementary): 1090 ± 60 nM

B2: ACACTCT spacer (dsDNA)
DNA 1: ATGCGCACACTCTGCGCAT
DNA 2: ATGCGCAGAGTGTGCGCAT
- Kd (NRF1 DD-DBD [1]): 4310 ± 280 nM

B3: NRF1 (aa 98–177) (domain or fragment, human, UniProt Q16656 98-177, looked up)
chain: ESNPSIRKRQQTRLLRKLRATLDEYTTRVGQQAIVLCISPSKPNPVFKVFGAAPLENVVRKYKSMILEDLESALAEHAPA
notes: pET28-MHL vector; His6 tag removed with TEV protease; source: E. coli BL21 (DE3), purified (Ni-NTA, anion exchange, gel filtration); not shown: His6, N-terminal, cleaved
- stoichiometry N [2]: 2

B4: tCGC (dsDNA)
DNA 1: ATTCGCATGCGCAT
DNA 2: ATGCGCATGCGAAT
- Kd (NRF1 DD-DBD [1]): 2110 ± 800 nM

B5: 20 bp DNA (dsDNA)
DNA 1: GCGATGCGCATGCGCATCGC
DNA 2: GCGATGCGCATGCGCATCGC
- Kd (NRF1 DD-DBD [3]): ~300 nM

B6: GCGt (dsDNA)
DNA 1: ATGCGTATGCGCAT
DNA 2: ATGCGCATACGCAT
- Kd (NRF1 DD-DBD [1]): 1250 ± 110 nM

B7: ACACTT spacer (dsDNA)
DNA 1: ATGCGCACACTTGCGCAT
DNA 2: ATGCGCAAGTGTGCGCAT
- Kd (NRF1 DD-DBD [1]): 4360 ± 290 nM

B8: GCtC (dsDNA)
DNA 1: ATGCTCATGCGCAT
DNA 2: ATGCGCATGAGCAT
- Kd (NRF1 DD-DBD [1]): 2230 ± 170 nM

B9: aCGC (dsDNA)
DNA 1: ATACGCATGCGCAT
DNA 2: ATGCGCATGCGTAT
- Kd (NRF1 DD-DBD [1]): 1270 ± 270 nM

B10: ACGT spacer (dsDNA)
DNA 1: ATGCGCACGTGCGCAT
DNA 2: ATGCGCACGTGCGCAT
- Kd (NRF1 DD-DBD [1]; self-complementary): 910 ± 40 nM

B11: 14 bp AT central (WT) (dsDNA)
DNA 1: ATGCGCATGCGCAT
DNA 2: ATGCGCATGCGCAT
- Kd (NRF1 DD-DBD [1]; self-complementary): 310 ± 50 nM
- Kd (NRF1 DBD [4]): ~1400 nM
- Kd (NRF1 DD): ~1800 nM
- Kd (NRF1 N242A): ~1730 nM
- Kd (NRF1 T109D): ~1600 nM
- Kd (NRF1 T109A): ~2290 nM
- Kd (NRF1 R206A): ~5200 nM
- Kd (NRF1 R244A): ~6660 nM

B12: atta/GCGC (dsDNA)
DNA 1: ATATTAATGCGCAT
DNA 2: ATGCGCATTAATAT
- Kd (NRF1 DD-DBD [1]): 3760 ± 230 nM

B13: A spacer (dsDNA)
DNA 1: ATGCGCAGCGCAT
DNA 2: ATGCGCTGCGCAT
- Kd (NRF1 DD-DBD [1]): 1620 ± 110 nM

B14: GCaC (dsDNA)
DNA 1: ATGCACATGCGCAT
DNA 2: ATGCGCATGTGCAT
- Kd (NRF1 DD-DBD [1]): 660 ± 40 nM

B15: no spacer (dsDNA)
DNA 1: ATGCGCGCGCAT
DNA 2: ATGCGCGCGCAT
- Kd (NRF1 DD-DBD [1]; self-complementary): 570 ± 20 nM

B16: GCaC/GtGC (dsDNA)
DNA 1: ATGCACATGTGCAT
DNA 2: ATGCACATGTGCAT
- Kd (NRF1 DD-DBD [1]; self-complementary): 4430 ± 550 nM

B17: 16 bp DNA (dsDNA)
DNA 1: GGTGCGCATGCGCACC
DNA 2: GGTGCGCATGCGCACC
- binding result (NRF1 DBD [5]): binds

B18: GCGt/aCGC (dsDNA)
DNA 1: ATGCGTATACGCAT
DNA 2: ATGCGTATACGCAT
- Kd (NRF1 DD-DBD [1]; self-complementary): 1310 ± 180 nM

B19: ACACT spacer (dsDNA)
DNA 1: ATGCGCACACTGCGCAT
DNA 2: ATGCGCAGTGTGCGCAT
- Kd (NRF1 DD-DBD [1]): 2320 ± 480 nM

B20: NRF1 (aa 54–284) (domain or fragment, human, UniProt Q16656 54-284, looked up)
chain: DDSDILNSTAADEVTAHLAAAGPVGMAAAAAVATGKKRKRPHVFESNPSIRKRQQTRLLRKLRATLDEYTTRVGQQAIVLCISPSKPNPVFKVFGAAPLENVVRKYKSMILEDLESALAEHAPAPQEVNSELPPLTIDGIPVSVDKMTQAQLRAFIPEMLKYSTGRGKPGWGKESCKPIWWPEDIPWANVRSDVRTEEQKQRVSWTQALRTIVKNCYKQHGREDLLYAFED
notes: pET28-MHL vector; His6 tag removed with TEV protease; also called Nuclear respiratory factor 1; NRF1 dimer; source: E. coli BL21 (DE3), purified (Ni-NTA, anion exchange, gel filtration); not shown: His6, N-terminal, cleaved
- stoichiometry N [2]: 2

B21: GCGa (dsDNA)
DNA 1: ATGCGAATGCGCAT
DNA 2: ATGCGCATTCGCAT
- Kd (NRF1 DD-DBD [1]): 3750 ± 690 nM

B22: GaGC (dsDNA)
DNA 1: ATGAGCATGCGCAT
DNA 2: ATGCGCATGCTCAT
- Kd (NRF1 DD-DBD [1]): 1380 ± 150 nM

B23: ACT spacer (dsDNA)
DNA 1: ATGCGCACTGCGCAT
DNA 2: ATGCGCAGTGCGCAT
- Kd (NRF1 DD-DBD [1]): 1960 ± 270 nM

B24: NRF1 (aa 54–177) (domain or fragment, human, UniProt Q16656 54-177, looked up)
chain: DDSDILNSTAADEVTAHLAAAGPVGMAAAAAVATGKKRKRPHVFESNPSIRKRQQTRLLRKLRATLDEYTTRVGQQAIVLCISPSKPNPVFKVFGAAPLENVVRKYKSMILEDLESALAEHAPA
notes: pET28-MHL vector; His6 tag removed with TEV protease; also called NRF1 DD; dimerization domain; source: E. coli BL21 (DE3), purified (Ni-NTA, anion exchange, gel filtration); not shown: His6, N-terminal, cleaved
- stoichiometry N [2]: 2

B25: GtGC (dsDNA)
DNA 1: ATGTGCATGCGCAT
DNA 2: ATGCGCATGCACAT
- Kd (NRF1 DD-DBD [1]): 1810 ± 250 nM
